Assay results published in US20230218735A1 (Pfizer, published 2023).

B1: hCDIFA-32 (antibody, V domains shown)
VH: QVQLQESGPGLVKPSETLSLTCTVSGGSISSHYWSWIRQTPGKGLEYIGNIYYTGRTKYNPSLKSRVTISADMSKNQVSLKLNSVTAADTAVYYCARGGPLMDVWGQGTTVTVSS
VL: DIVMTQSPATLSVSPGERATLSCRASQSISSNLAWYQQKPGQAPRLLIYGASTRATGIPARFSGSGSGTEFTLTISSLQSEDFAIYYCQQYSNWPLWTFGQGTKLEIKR
B2: hCDIFA-15 (antibody, V domains shown)
VH: QVQLVQSGAEVKKPGASVKISCKASGYTFVRYYMHWVRQAPGQGLEWMGLIDPSGGSTRYAQRFQGRVTMTRDTSTSTVYMELSGLRSEDTAVYYCARDGPFGGLSGGNWFDPWGQGTLVTVSS
VL: AIRMTQSPGTLSLSPGERATLSCRASQSLSFSYLAWYQQKPGQAPRLLIYGASSRATGIPDRFSGSGSGTDFALTISRLEPEDFAVYYCQQYGTSPLTFGGGTKVDIKR
B3: hCDIFA-45 (antibody, V domains shown)
VH: QVQLVQSGPEVRKPGTSVKFSCKASGFTFTSAAMQWVRQARGQRLEWIGWIVVDSGNTNYAQKFQERVTITRDMSTSTVYMELSSLRSEDTAMYYCAASRGIVGTRGLFDSWGQGTLVTVSS
VL: EIVLTQSPSSLSSSVGDRVTITCRASQSIRNYLNWYQQKPGKAPKLLIYGASSLQSGVPPRFSGSGFGTDFTLTISNLQPEDFASYSCQQTYSTPLTFGGGTKLEIKR
B4: hCDIFA-35 (antibody, V domains shown)
VH: EVQLVQSGGGVVQPGRSLKLSCAASGFSFSSHGMHWVRQAPGKGLEWVALISYDGSYKYYEDSVKGRFTISRDNSKNTLYLQMNSLRAEDTAVYYCAKDWERYCSGMSCYLRNSLDYWGQGTLVTVSS
VL: QSALTQPPSVSVAPGKTAGITCGGPNIGSKSVHWYQRKPGQAPVLVVYDDRYRPSGIPERFSGSNSGNTATLSISRVEAGDEADYYCQVWDSRSDHVVFGGGTKLTVLG
B5: hCDIFA-59 (antibody, V domains shown)
VH: QVQLVESGGGLVQPGRSLRLSCRTSGFTFGDFALSWVRQAPGKGLEWVGYIRSKTFGGTTEYAASVKGRFTMSRDDSKSIAYLQMNSLKTEDTAVYFCTRASYGAFDYWGQGTLVTVSS
VL: DIVMTQSPSSLSASVGDTVTITCRAGQNIATYLHWYQQKPGKAPNLLIYDARTLQSGVPSRFSGSGSGTDFTLTINSLQPEDFATYYCQQSYNTPWTFGQGTKVEIKR
B6: hCDIFA-5 (antibody, V domains shown)
VH: EVQLVESGPGLVKPSETLSLTCAVSGGSISGYYWSWIRQPPGKGLEWIAYIYDSGSTSHNPSLKSRVTTSVDTSKNQFSLKLNSVTAADTAVYYCARSGKWALGAFDMWGQGTMVTVSS
VL: QSALTQPPSVSGAPGQRVTISCTGSSSNIGAGYDVHWYQQLPGTAPKLLISGNNNRPSGVPDRFSGSKSGTSASLAITGLQAEDEADYYCQSYDNDLSGLVVFGGGTKLTVLG
B7: hCDIFA-43 (antibody, V domains shown)
VH: QVQLVQSGPVLVKPTETLMLTCTVSGFSLSSAGMGVSWIRQPPGKAPEWLAHIFLSDEKSYRTSLESRLTISKDTSKSQVVLIMTNVDPADTATYYCARALKRYCTGGVCFLNWFDSWGPGTVVTVSS
VL: DIVMTQSPGTLSLSPGERATLSCRASLSIGNLYLAWYKQRPGHPPRLLIYGASSRATGTPDRFSGSGSGTDFTLTISRLEPEDFVVYYCQQYKTSPWTFGQGTKVEIKR
B8: hCDIFA-6 (antibody, V domains shown)
VH: QVQLQESGPGLVKPSQTLSLTCSVSGDSSSSGDYYWNWIRQPAGKGLEWIGYIYTSGSTNYNPSLKSRVTISEDTSKKQFSLKLTSVTAADTAVYYCARGIVGVGLDYWGQGTLVTVSS
VL: EIVMTQSPSTLSASVGDRVTITCRASQTISSWLAWYQQKPGRAPKLLMSKTSTLQPGVPSRFSGSGSGTEFTLTISGLQPDDVATYYCHHYNSWPFGPGTKVEIKR
B9: hCDIFA-37 (antibody, V domains shown)
VH: QVQLLESGPGLVKTSGTLSLTCSVSGDSVSTNNWWTWVRQPPGKGLEWIGEIYYNGNTIYNPSFKSRVTISVNRSKNHFSLKLNSVTAADRAVYYCARRTWNDVGPFDYWGQGILVTVSS
VL: DIVMTQSPSSLSASIGDRVIITCRASQNINRYLNWYQQTAGKAPKLLIYGTSNLQSGVPSRFSGSGSGSGTDFTLTISSLQPEDFATYYCHQSYRTPQTFGQGTKLEIKR
B10: hCDIFA-24 (antibody, V domains shown)
VH: QVQLVQSGGGVVQPGRSLRLSCAASGFSFSTHGMHWVRQAPGKGLEWVAVISYDGSNKYYADSVKGRFTISRDNSKNTVYLQMNSLRAEDTAVFYCAKPRDNYYYYGMDVWGQGTTVTVSS
VL: AIRMTQSPSSLSASTGNRVTITCRASQGISSYLAWYQQKPGKAPNLLIYAASTLQSGVPSRFTGSGSGTDFTLTISRLHSENFATYYCQQYFNYPRTFGQGTRLEIKR
B11: hCDIFA-55 (antibody, V domains shown)
VH: EVQLLESGAEVKKPGASVKVSCKASAYTFTTYGINWVRQAPGQGLEWMGWVSFSNGNTEYAQKFQGRVTMTTDTSTSTAFMELRSLRSDDTAVYYCASEKGELLSGCFDPWGQGTLVTVSS
VL: QSVLTQPPSVSAAPGQKVTISCSGSSSNIGNSLVSWYQHLPGTAPKLLISDNNERPSGIPDRFSGSKSGTSATLGITGLQTGDEADYYCGTWDSSLSVVVFGGGTKLTVLG
B12: hCDIFA-53 (antibody, V domains shown)
VH: QVQLQQSGPGLVKPSETLSLTCTLSGGSISSDNYYWGWVRQPPGKGLEWIGSIYYSGSTYYNPSLKSRVFISVDMSKNQFSLKLSSVTAADTAVYYCARHTQGLGILRYFDWWTRPFDYWGQGTLVTVSS
VL: QSALTQPASVSGSPGQSITISCTGTSSDVGSYNLVSWYQQHPGKAPKLMIYEGSKRPSGVSNRFSGSKSGNTASLTISGLQAEDEADYYCCSYAGSSTLFGGGTKLTVLG
B13: hCDIFA-1 (antibody, V domains shown)
VH: QLQLQESGPGLVKPSETLSLICTVSGGSFSSSDFYWGWIRQPPGKGLEWIGNFYYNGSTSYNPSLKSRVTISVDTSKNQFSLKLRSVTAADTAVYYCARDYNFWNNSPNWFDPWGQGTLVTVSS
VL: EIVMTQSPATLSVSPGERATLSCRASQSISSNLAWYQQKLGQAPRLLIHGASTRATGIPARFSGSGSGTQFTLTISSLQSEDFAVYFCQQYNNWPPTFGGGTKVDIKR
B14: hCDIFA-49 (antibody, V domains shown)
VH: QVQLQESGPRLLEPSETLSLSCTVSGGSITSYYWGWIRQSPGKGLQWIGHIDSSGNTNYNYNSSLMNRVTISVVTSKNQFSLKLTSVTPADSAVYYCARVYLFYFGQSKWEYFDSWGQGTLVTVSS
VL: QSALTQPPSVSGAPGQRVTISCTGSDSNIGTDYDVHWYKQVPGAAPKLLIYGINNRPSGVPDRFSGSKSGTSASLAITGLQAEDEGDYYCQSYDIRPSGSVVFGGGTKLTVLG
B15: hCDIFA-51 (antibody, V domains shown)
VH: EVQLLESGGGVVQPGRSLRLSCAASGFTFSNYGMHWVRQAPGKGLEWVAVIWYDGSNKYYADSVKGRFTISRDNSKNMVYLQMNSLRGADTAVYYCAGDRHLGLWGYYYYYYAMDVWGQGTTVTVSS
VL: QAVVTQPPSVSAAPGQRVTISCSGSSSNIGKNYVSWYQHLPGTAPKLLIYESNKRPSGIPDRFSGSKSGTSATLGITGLQTGDEADYYCGTWDSSLSAGLFGGGTKVTVLG
B16: hCDIFA-47 (antibody, V domains shown)
VH: QVQLQESGAEVKKPGSSVKVSCQASGGTFSNYAFNWVRQAPGQGLEWMGRTIPIVGLVNYAQNFQGRITFSADKSTSTAYMEVNSLRSDDTAVYYCARAEYPLNCTRGNCDVGTSYHYYYGMGVWGRGTTVTVSS
VL: EIVMTQSPATLSVSPGERATLSCRASQSISSNLAWFQQKPGQAPRLLIHGASTRATGIPVRFSGSGSGTEFTLTISSLQFGDSAVYYCQQYYNWRYTFGQGTKLEIKR
B17: hCDIFA-50 (antibody, V domains shown)
VH: QVQLVQSGTEVKKPGASVKVSCKASGYTFTNYGISWVRQAPGQGLEWMGWISGNNGHTNYAQNLQGRVTMTTDTSTSTAYMELRSLRSDDTAVYYCARVTRWFGELLGDYWGQGTLVTVSS
VL: QTVVTQEPSLTVSPGGTVTLTCASSTGAVTSGFLPNWFQQKPGQAPRALIYNTNNKHSWTPARFSGSLLGGKAALTLSGVQPEDEAEYYCLLYFDDAQVQVFGGGTKLTVLG
B18: hCDIFA-4 (antibody, V domains shown)
VH: QVQLQESGPGLVKPSGTLSLTCAVSGGSISSINWWSWVRQPPGKGLEWIGEIYHSGSTNYNPSLKSRVTISVDKSKNQFSLKLSSVTAADTAVYYCAREGKVDSSSQGNWFDPWGQGTLVTVSS
VL: QPVLTQPRSVSGSPGQSVTISCTGTSSDVGGYNYVSWYQQHPGKAPKFMIYDVSKRPSGVPDRFSGSKSGNTASLTISGLQAEDEADYYCCSYAGTYTFYVFGTGTKVTVLG
B19: hCDIFA-54 (antibody, V domains shown)
VH: QVQLVESGAEVKKPGASVKVSCKASGYTFTSYDINWVRQATGQGLEWMGWMNPNSGNTGYAQKFQGRVTMTRNTSISTAYMELSSLRSEDTAVYYCARGGPNSGSFSHWFDPWGQGTLVTVSS
VL: QAVVTQPPSASASLGASVTLTCTLSSGYSNYKVDWYQQRPGKGPRFVMRVGTGGIVGSKGDGIPDRFSVLGSGLNRYLTIKNIQEDDESDYHCGADHGSGSNFAVVFGGGTKLTVLG

These binders were tested against C. difficile toxin A (Clostridium difficile, UniProt P16154 1-2710) (assay: cell-based or functional assay).

| Binder | EC50 TcdA [RLU], toxin neutralization assay (TNA) on IMR90 cells |
| --- | --- |
| B1 | 306 RLU |
| B2 | ~147 RLU |
| B3 | 1490 RLU |
| B4 | ~52 RLU |
| B5 | 9 RLU |
| B6 | 1450 RLU |
| B7 | 3210 RLU |
| B8 | 1420 RLU |
| B9 | 37100 RLU |
| B10 | 6300 RLU |
| B11 | 942000 RLU |
| B12 | 4100 RLU |
| B13 | 5760 RLU |
| B14 | 305000 RLU |
| B15 | 1640 RLU |
| B16 | 12700 RLU |
| B17 | 1490 RLU |
| B18 | 22800 RLU |
| B19 | 1490 RLU |

What follows are binders tested against T1, genetically modified and chemically inactivated C. difficile toxoid A (Clostridium difficile, UniProt P16154 2-2710) (assay: ITC).
T1 construct: also called TxdA; the toxoid

| Binder | DH | Kd | Stoichiometry |
| --- | --- | --- | --- |
| B1 | -12 kcal/mol | 21 nM | 0.21 |
| B2 | -2.7 kcal/mol | 38 nM | 1.68 |
| B3 | -17.6 kcal/mol | 0.3 nM | 0.98 |
| B4 | -16.6 kcal/mol | 8 nM | 1.04 |
| B9 | -7.9 kcal/mol | 7 nM | 0.95 |
| B10 | -11.2 kcal/mol | 6 nM | 1.07 |
| B13 | -17.2 kcal/mol | 8 nM | 1.45 |
